According to the Human Domainome abundance scans (Beltran et al. 2025):
± gives the uncertainty stated by the source.

B1: POU domain, class 5, transcription factor 1, residues 134 to 212; numbered along this chain, Q01860 (parent)
chain: EESQDIKALQKELEQFAKLLKQKRITLGYTQADVGLTLGVLFGKVFSQTTICRFEALQLSFKNMCKLRPLLQKWVEEAD

Variants of: B1
Assay: abundance fitness (aPCA) (normalised: wild type 0, dead -1); higher = more abundant; growth selection in yeast, the domain comes from the species named
Settings: Homo sapiens

Abundance fitness of substitutions, site by site:
L41: T -0.04 ± 0.35, R -0.345 ± 0.15, V -0.329 ± 0.17, W 0.046 ± 0.14
C52: A 0.424 ± 0.15, N 0.175 ± 0.46, K 0.356 ± 0.25, D 0.203 ± 0.3, R 0.47 ± 0.18, Y -0.604 ± 0.4, F -0.343 ± 0.29, E 0.086 ± 0.31, L -0.07 ± 0.31, S 0.341 ± 0.2, M 0.451 ± 0.26
L59: C 0.009 ± 0.28, S -0.453 ± 0.22, N 0.124 ± 0.34, E 0.101 ± 0.17, A -0.81 ± 0.35, R -0.561 ± 0.2, V -0.7 ± 0.25, T -0.533 ± 0.46, M -0.054 ± 0.17, G -0.432 ± 0.11, P -0.312 ± 0.37
K66: D -0.477 ± 0.3, M 0.113 ± 0.12, F 0.04 ± 0.28, P -0.51 ± 0.27, Q -0.051 ± 0.19, R -0.01 ± 0.093, S 0.003 ± 0.12, N 0.209 ± 0.32, V -0.365 ± 0.15, T -0.187 ± 0.16, G -0.185 ± 0.091, A -0.011 ± 0.097
F54: E -0.828 ± 0.33, S -0.562 ± 0.24, K -0.662 ± 0.42, W -0.797 ± 0.22, P -0.719 ± 0.4, R -0.621 ± 0.12, G -0.695 ± 0.14, C -0.5 ± 0.38, T 0.078 ± 0.29, M -0.535 ± 0.24, A -1.13 ± 0.5, Q -0.891 ± 0.47, V -0.625 ± 0.18
M64: Q -0.802 ± 0.23, W -0.667 ± 0.22, C -0.739 ± 0.33, R -0.871 ± 0.15, P -0.604 ± 0.27, A -0.251 ± 0.11, L -0.333 ± 0.11, V -0.675 ± 0.15, D -0.816 ± 0.32, Y -1.06 ± 0.5, G -0.621 ± 0.12, F -0.8 ± 0.47, N -0.608 ± 0.23, E -0.763 ± 0.23, T -0.496 ± 0.14, K -0.279 ± 0.13
Q58: T -0.097 ± 0.2, A -0.5 ± 0.21, E 0.126 ± 0.11, K -0.035 ± 0.2, R -0.31 ± 0.12, L -0.43 ± 0.3, W -0.179 ± 0.34, S -0.307 ± 0.17, G -0.573 ± 0.25, D -0.03 ± 0.19
F42: P -0.654 ± 0.15, K -0.262 ± 0.098, C 0.092 ± 0.15, T 0.166 ± 0.07, E -0.493 ± 0.096, W -0.165 ± 0.08, L -0.469 ± 0.081, Q -0.875 ± 0.24, Y -0.028 ± 0.27, S -0.055 ± 0.075, D -0.481 ± 0.31, V 0.127 ± 0.046, I -0.49 ± 0.19, R -0.627 ± 0.076, A -0.014 ± 0.054, M -0.607 ± 0.15, N -0.191 ± 0.2, G -0.091 ± 0.049
E55: G -0.66 ± 0.15, S -0.418 ± 0.27, K -0.495 ± 0.26, I -0.365 ± 0.33, M -0.907 ± 0.39, V -1.04 ± 0.41, R -0.607 ± 0.16, W -0.555 ± 0.26, Q -0.498 ± 0.38
Q48: P 0.097 ± 0.23, D 0.164 ± 0.44, E 0.484 ± 0.14, L -0.435 ± 0.35, G 0.24 ± 0.076, R 0.126 ± 0.1, M 0.348 ± 0.35, S 0.208 ± 0.17, F -0.343 ± 0.41, A 0.162 ± 0.15, K 0.079 ± 0.31
L57: G 0.094 ± 0.078, R -0.234 ± 0.098, C 0.035 ± 0.18, V -0.066 ± 0.13, K -0.45 ± 0.28, S -0.306 ± 0.16, N 0.261 ± 0.34, M 0.152 ± 0.16, W -0.355 ± 0.17, P -0.005 ± 0.22, E -0.694 ± 0.4, Y 0.129 ± 0.29, T -0.344 ± 0.29, A -0.58 ± 0.22, Q 0.106 ± 0.2, H 0.298 ± 0.2, D -0.509 ± 0.34
I51: R -0.575 ± 0.34, T -0.338 ± 0.28, G -0.25 ± 0.15, K -0.067 ± 0.44, A -0.916 ± 0.42, V -0.48 ± 0.27
L67: C -0.363 ± 0.27, W -0.851 ± 0.26, E -0.289 ± 0.17, Q -0.756 ± 0.39, T -0.494 ± 0.29, M -0.052 ± 0.16, S -0.608 ± 0.22, R -0.575 ± 0.12, N 0.553 ± 0.28, A -0.612 ± 0.16
K44: N -0.26 ± 0.23, S -0.805 ± 0.33, G -0.382 ± 0.079, H -0.181 ± 0.27, P -0.3 ± 0.15, C -0.381 ± 0.18, D -0.262 ± 0.2, E 0.016 ± 0.077, M -0.374 ± 0.39, Q 0.018 ± 0.091, Y -0.489 ± 0.44, V -0.441 ± 0.11
F46: C 0.311 ± 0.14, D 0.136 ± 0.19, K -0.17 ± 0.3, T 0.025 ± 0.2, P 0.029 ± 0.15, I 0.107 ± 0.24, R -0.429 ± 0.14, S -0.553 ± 0.28, V 0.411 ± 0.074, L 0.211 ± 0.083, M 0.023 ± 0.17, A -0.147 ± 0.13, W -0.398 ± 0.19, G -0.714 ± 0.16, E -0.293 ± 0.15
V45: R 0.036 ± 0.049, C -0.101 ± 0.093, L -0.338 ± 0.12, W -0.143 ± 0.058, D -0.28 ± 0.13, N 0.001 ± 0.25, Q 0.044 ± 0.091, E 0.16 ± 0.05, F -0.15 ± 0.17, P 0.12 ± 0.077, H 0.013 ± 0.082, T -0.005 ± 0.11, S 0.012 ± 0.077, K 0.085 ± 0.1, A 0.127 ± 0.049, G -0.153 ± 0.043, M -0.122 ± 0.21
C65: K -0.271 ± 0.22, G -0.691 ± 0.12, S -0.393 ± 0.15, M -0.04 ± 0.14, A -0.381 ± 0.13, D 0.155 ± 0.16, V -0.178 ± 0.097, I 0.246 ± 0.2, Y -0.449 ± 0.32, R -0.18 ± 0.073, Q 0.074 ± 0.13, W -0.289 ± 0.12, T -0.403 ± 0.23, N -0.343 ± 0.29, L 0.14 ± 0.077
S60: V -0.843 ± 0.25, A -0.273 ± 0.14, L -0.265 ± 0.21, E -0.173 ± 0.15, G -0.268 ± 0.09, I -0.284 ± 0.5, Q -0.415 ± 0.36, W -0.381 ± 0.31, R -0.556 ± 0.14, D 0.197 ± 0.15, P 0.084 ± 0.15, C -0.449 ± 0.47
R53: H 0.118 ± 0.26, Q -0.074 ± 0.17, G -0.421 ± 0.16, P -0.287 ± 0.46, K 0.029 ± 0.41, E -0.078 ± 0.16, A -0.06 ± 0.21, D -0.027 ± 0.23, S -0.467 ± 0.34, T -0.356 ± 0.38
N63: H -0.183 ± 0.31, A 0.045 ± 0.11, K 0.172 ± 0.23, F -0.2 ± 0.43, Q -0.236 ± 0.24, G -0.314 ± 0.1, S 0.299 ± 0.11, L -0.336 ± 0.2, W -0.832 ± 0.39, R 0.037 ± 0.095, C -0.31 ± 0.24, T -0.303 ± 0.22, V -0.305 ± 0.13, E 0.126 ± 0.14, D -0.093 ± 0.24, M -0.088 ± 0.33, Y -0.387 ± 0.5
T49: L -0.418 ± 0.12, A 0.02 ± 0.11, F -0.432 ± 0.46, Q 0.206 ± 0.096, K 0.235 ± 0.12, W -0.259 ± 0.15, V -0.272 ± 0.097, E 0.186 ± 0.11, P -0.281 ± 0.23, D 0.044 ± 0.16, N -0.111 ± 0.24, C -0.524 ± 0.27, H 0.109 ± 0.21, S -0.072 ± 0.11, G -0.243 ± 0.082
T50: R -0.756 ± 0.19, W -0.43 ± 0.22, L -0.626 ± 0.32, V 0.015 ± 0.087, S -0.542 ± 0.2, H 0.017 ± 0.4, M -0.27 ± 0.29, Q -0.411 ± 0.34, G -0.601 ± 0.13, A -0.316 ± 0.15, E 0.231 ± 0.11, C -0.298 ± 0.31
S47: R -0.469 ± 0.15, T -0.169 ± 0.24, D -0.323 ± 0.28, L -0.756 ± 0.35, Q -0.196 ± 0.32, A -0.379 ± 0.22, K -0.597 ± 0.48, F -0.094 ± 0.29, E -0.228 ± 0.2
A56: P -0.345 ± 0.37, W -0.812 ± 0.23, H -0.245 ± 0.21, E 0.067 ± 0.09, Q 0.059 ± 0.13, C -0.098 ± 0.19, N 0.067 ± 0.28, V -0.464 ± 0.14, R -0.492 ± 0.17, K -0.197 ± 0.18, M 0.159 ± 0.16, D 0.18 ± 0.13, G -0.06 ± 0.076, T -0.243 ± 0.24, S -0.002 ± 0.1
G43: V -0.585 ± 0.23, N -0.341 ± 0.37, C -0.485 ± 0.41, R -0.613 ± 0.17, A -0.282 ± 0.3, S -0.651 ± 0.46, K -0.516 ± 0.31
F61: L 0.036 ± 0.12, P 0.202 ± 0.13, V 0.031 ± 0.097, M 0.04 ± 0.11, A -0.147 ± 0.12, G -0.466 ± 0.092, N -0.275 ± 0.29, R -0.422 ± 0.1, T 0.063 ± 0.17, C -0.441 ± 0.31, Q -0.111 ± 0.17, I 0.132 ± 0.24, Y -0.09 ± 0.5, E -0.8 ± 0.21, K -0.206 ± 0.16, W -0.035 ± 0.091
K62: L -0.579 ± 0.27, I -0.238 ± 0.4, T -0.055 ± 0.19, G -0.146 ± 0.083, E 0.038 ± 0.15, C -0.489 ± 0.44, M 0.192 ± 0.23, R -0.143 ± 0.083, P -0.08 ± 0.24, H -0.19 ± 0.36, D 0.201 ± 0.17, S 0.041 ± 0.13, V -0.24 ± 0.14, Q 0.046 ± 0.24
